B1: IMM5602 (bispecific antibody, human IgG1, kappa)
heavy: QVQLVQSGAEVAKPGTSVKLSCKASGYTFTDYWMQWVKQRPGQGLEWIGTIYPGDGDTGYAQKFQGKATLTADKSSKTVYMHLSSLASEDSAVYYCARGDYYGSNSLDYWGQGTSVTVSSASTKGPSVFPLAPSSKSTSGGTAALGCLVKDYFPEPVTVSWNSGALTSGVHTFPAVLQSSGLYSLSSVVTVPSSSLGTQTYICNVNHKPSNTKVDKRVEPKSCDKTHTCPPCPAPELLGGPSVFLFPPKPKDTLMISRTPEVTCVVVDVSHEDPEVKFNWYVDGVEVHNAKTKPREEQYNATYRVVSVLTVLHQDWLNGKEYKCKVSNKALPAPIAATISKAKGQPREPQVYTLPPSREEMTKNQVSLTCLVKGFYPSDIAVEWESNGQPENNYKTTPPVLDSDGSFFLYSKLTVDKSRWQQGNVFSCSVMHEALHNHYTQKSLSLSPGK
light: not shown
notes: also called recombinant fusion protein; anti-CD38 heavy chain + SIRPαD1-linker-anti-CD38 light chain
B2: IMM5601 (bispecific antibody, human IgG1, kappa)
heavy: not shown
light: DIVMTQSHLSMSTSLGDPVSITCKASQDVSTVVAWYQQKPGQSPRRLIYSASYRYIGVPDRFTGSGAGTDFTFTISSVQAEDLAVYYCQQHYSPPYTFGGGTKLEIKRTVAAPSVFIFPPSDEQLKSGTASVVCLLNNFYPREAKVQWKVDNALQSGNSQESVTEQDSKDSTYSLSSTLTLSKADYEKHKVYACEVTHQGLSSPVTKSFNRGEC
notes: also called recombinant fusion protein; SIRPαD1-linker-anti-CD38 heavy chain + anti-CD38 light chain

How the values were obtained:
CD47 [1] = biological target: T1, CD47 (UniProt Q08722 19-323, limits assumed); assay: flow cytometry on CD38^-CD47^+ Jurkat cells, FITC anti-human IgG-Fc
T1 construct: whole, on cells; also called CD47 on CD38^-CD47^+ Jurkat cells; CD47 on CD38^+CD47^+ NCI-H929 cells
Description: Cells were washed with cold 1% BSA-PBS twice, and then incubated with FITC-conjugated secondary antibody against human IgG-Fc (Cat #F9512, Sigma) for 45 min. Cells were washed twice and re-suspended in 200 μl PBS. Then, the cells were subject to FACS analysis using a flow cytometer (Merck Millipore, Guava® easyCyte 5HT).

CD47 [2] = biological target: T1, CD47; assay: FACS competition against SIRPα-mFc (3 µg/ml) on CD47^+CD38^+ NCI-H929 cells, PE anti-mouse IgG-Fc
Description: The resultant mixtures were added to the wells of a 96-well plate each containing 50 μl 1×10⁶/ml CD47⁺CD38⁺ NCI-H929 cells, and the plate was incubated at 4° C. for 45 min. […] Cells were washed twice, re-suspended in 200 μl PBS, and subject to FACS analysis.

EC50 (CD47 [1]) | IC50 (CD47 [2]) | Binder
21.9 nM |  | B1
14.1 nM | 30.7 nM | B2

Source: patent US20230110702A1 (IMMUNEONCO BIOPHARMACEUTICALS SHANGHAI, published 2023)
